Assay results taken from patent US20110177501, “BIOSENSOR FOR DETECTION AND VISUALISATION OF SINGLE-STRANDED DNA” (MEDICAL RESEARCH COUNCIL, published 2011).

Columns and labels:
IDCC-E. coli SSB (G26C) [1] = target: T1, IDCC-E. coli SSB (G26C) (Escherichia coli, UniProt P0AGE0 SEQ:1-177, G26C (mature protein numbering as printed)); assay: competition; ratio Kd(IDCC-SSB)/Kd(unlabeled SSB); 200 mM NaCl, 30 C; settings: tags: IDCC diethylaminocoumarin label on Cys26; chain copies: 4 (stated, tetramer)
Description: (§1) In order to obtain a molecule suitable for solution measurements, a suitably large fluorescence increase on binding DNA, together with reasonably bright fluorescence quantum yield are the main criteria. Fluorescence spectra of 250 nM labeled E. coli SSB (tetramer concentration) were measured at 30° C. in 25 mM Tris.HCl pH 7.5, 200 mM NaCl, 1 mM DTT, and 5 μM bovine serum albumin.
(§2) In order to determine the effect of labeling on the affinity of E. coli SSB for ssDNA, dT₇₀ was titrated into a mixture of unlabeled E. coli SSB and IDCC-E. coli SSB (FIG. 4). It is apparent that low concentrations of DNA bind mainly to the unlabeled E. coli SSB, as there is only a small increase in fluorescence. This implies that the unlabeled protein has the higher affinity.

[2] = target: 6-IATR-E. coli SSB (W88C) (Escherichia coli, UniProt P0AGE0 SEQ:1-177, W88C (mature protein numbering as printed)); assay: tight binding, saturates at 1:1 dT70:tetramer; 200 mM NaCl; settings: tags: 6-IATR rhodamine label on Cys88; chain copies: 4 (stated, tetramer)
[3] = target: unlabeled E. coli SSB (S92C) (Escherichia coli, UniProt P0AGE0 SEQ:1-177, S92C (mature protein numbering as printed)); assay: competition; binds dT70 28-fold more tightly than IDCC-SSB; settings: chain copies: 4 (stated, tetramer)
Description: as §1, §2

MIANS-E. coli SSB (S92C) = MIANS-E. coli SSB (S92C) (Escherichia coli, UniProt P0AGE0 SEQ:1-177, S92C); assay: 25 mM Tris pH 7.5, 200 mM NaCl, 30 C; settings: tags: MIANS label on Cys92; chain copies: 4 (stated, tetramer)
Description: as §1
(§3) Excitation was at the appropriate wavelength for the fluorophore and the emission intensities at the maximum were measured in the absence and presence of saturating dT₇₀. The two coumarins, IDCC and MDCC gave the largest fluorescence enhancement with G26C and this mutant protein labeled with IDCC, IDCC-E. coli SSB, was chosen for further study for two reasons. Firstly it gave consistently a larger increase than MDCC. […] In the case of MDCC, reaction of its maleimide with a protein cysteine causes the production of diastereoisomers. […] In contrast, reaction of IDCC with a thiol should produce only a single molecular species.

[4] = target: 6-IATR-E. coli SSB (G26C) (Escherichia coli, UniProt P0AGE0 SEQ:1-177, G26C); assay: 25 mM Tris pH 7.5, 200 mM NaCl, 30 C; settings: tags: 6-IATR label on Cys26; chain copies: 4 (stated, tetramer)
Description: as §1, §3

MDCC-E. coli SSB (G26C) = MDCC-E. coli SSB (G26C) (Escherichia coli, UniProt P0AGE0 SEQ:1-177, G26C); assay: 25 mM Tris pH 7.5, 200 mM NaCl, 30 C; settings: tags: MDCC label on Cys26; chain copies: 4 (stated, tetramer)
Description: as §1, §3

MDCC-E. coli SSB (S92C) = MDCC-E. coli SSB (S92C) (Escherichia coli, UniProt P0AGE0 SEQ:1-177, S92C); assay: 25 mM Tris pH 7.5, 200 mM NaCl, 30 C; settings: tags: MDCC label on Cys92; chain copies: 4 (stated, tetramer)
Description: as §1, §3

[5] = target: Alexa Fluor 488-E. coli SSB (S92C) (Escherichia coli, UniProt P0AGE0 SEQ:1-177, S92C); assay: 25 mM Tris pH 7.5, 200 mM NaCl, 30 C; settings: tags: Alexa Fluor 488 label on Cys92; chain copies: 4 (stated, tetramer)
Description: as §1, §3

[6] = target: Alexa Fluor 546-E. coli SSB (S92C) (Escherichia coli, UniProt P0AGE0 SEQ:1-177, S92C); assay: 25 mM Tris pH 7.5, 200 mM NaCl, 30 C; settings: tags: Alexa Fluor 546 label on Cys92; chain copies: 4 (stated, tetramer)
Description: as §1, §3

IDCC-E. coli SSB (S92C) = IDCC-E. coli SSB (S92C) (Escherichia coli, UniProt P0AGE0 SEQ:1-177, S92C); assay: 25 mM Tris pH 7.5, 200 mM NaCl, 30 C; settings: tags: IDCC label on Cys92; chain copies: 4 (stated, tetramer)
Description: as §1, §3

[7] = target: Alexa Fluor 488-E. coli SSB (G26C) (Escherichia coli, UniProt P0AGE0 SEQ:1-177, G26C); assay: 25 mM Tris pH 7.5, 200 mM NaCl, 30 C; settings: tags: Alexa Fluor 488 label on Cys26; chain copies: 4 (stated, tetramer)
Description: as §1, §3

[8] = target: Alexa Fluor 546-E. coli SSB (G26C) (Escherichia coli, UniProt P0AGE0 SEQ:1-177, G26C); assay: 25 mM Tris pH 7.5, 200 mM NaCl, 30 C; settings: tags: Alexa Fluor 546 label on Cys26; chain copies: 4 (stated, tetramer)
Description: as §1, §3

IDCC-E. coli SSB (G26C) [9] = target: T1, IDCC-E. coli SSB (G26C); assay: 25 mM Tris pH 7.5, 200 mM NaCl, 30 C; settings: tags: IDCC diethylaminocoumarin label on Cys26; chain copies: 4 (stated, tetramer)
Description: as §1, §3

[10] = target: 6-IATR-E. coli SSB (S92C) (Escherichia coli, UniProt P0AGE0 SEQ:1-177, S92C); assay: 25 mM Tris pH 7.5, 200 mM NaCl, 30 C; settings: tags: 6-IATR label on Cys92; chain copies: 4 (stated, tetramer)
Description: as §1, §3

B1: dT70 (ssDNA)
DNA: TTTTTTTTTTTTTTTTTTTTTTTTTTTTTTTTTTTTTTTTTTTTTTTTTTTTTTTTTTTTTTTTTTTTTT
**Q.** How did the binding signal (IDCC-E. coli SSB (G26C) [1]) turn out when B1 was run?
**A.** 28 fold Kd vs unlabeled SSB S92C

**Q.** What about the activity [2] of the same binder?
**A.** ~4.5 fold fluorescence (+/- DNA)

**Q.** Does B1 bind [3]?
**A.** binds

**Q.** What about the activity (MIANS-E. coli SSB (S92C)) of the same binder?
**A.** 0.4 fluorescence ratio +/- dT70

**Q.** And the activity [4]?
**A.** 2.8 fluorescence ratio +/- dT70

**Q.** What about the activity (MDCC-E. coli SSB (G26C)) of the same binder?
**A.** 4.9 fluorescence ratio +/- dT70

**Q.** And the activity (MDCC-E. coli SSB (S92C))?
**A.** 2.2 fluorescence ratio +/- dT70

**Q.** What about the activity [5] of the same binder?
**A.** 3.1 fluorescence ratio +/- dT70

**Q.** And the activity [6]?
**A.** 1.5 fluorescence ratio +/- dT70

**Q.** What about the activity (IDCC-E. coli SSB (S92C)) of the same binder?
**A.** 2.8 fluorescence ratio +/- dT70

**Q.** And the activity [7]?
**A.** 3.3 fluorescence ratio +/- dT70

**Q.** What about the activity [8] of the same binder?
**A.** 2.3 fluorescence ratio +/- dT70

**Q.** What about the activity (IDCC-E. coli SSB (G26C) [9]) of the same binder?
**A.** 6.1 fluorescence ratio +/- dT70

**Q.** And the activity [10]?
**A.** 1.3 fluorescence ratio +/- dT70
